Source: US20090029924

T1: Pseudomonas exotoxin A (PEx), P11439
T1 chain: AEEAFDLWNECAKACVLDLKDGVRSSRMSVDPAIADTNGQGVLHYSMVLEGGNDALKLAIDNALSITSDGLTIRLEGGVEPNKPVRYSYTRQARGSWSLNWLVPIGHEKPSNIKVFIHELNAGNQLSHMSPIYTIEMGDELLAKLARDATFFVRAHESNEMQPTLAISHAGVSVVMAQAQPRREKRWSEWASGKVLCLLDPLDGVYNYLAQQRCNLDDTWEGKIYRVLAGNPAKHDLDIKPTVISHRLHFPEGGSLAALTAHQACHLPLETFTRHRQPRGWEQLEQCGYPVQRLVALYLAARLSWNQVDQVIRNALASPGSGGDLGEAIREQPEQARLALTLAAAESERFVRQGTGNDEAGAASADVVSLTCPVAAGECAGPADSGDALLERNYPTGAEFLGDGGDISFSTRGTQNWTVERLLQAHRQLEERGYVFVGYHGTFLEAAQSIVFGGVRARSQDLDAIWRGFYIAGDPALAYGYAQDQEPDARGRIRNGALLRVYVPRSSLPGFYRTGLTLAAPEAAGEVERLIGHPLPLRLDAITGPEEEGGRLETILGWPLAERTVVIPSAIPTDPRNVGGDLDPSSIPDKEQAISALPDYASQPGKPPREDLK

B1: Recombinant rat PACE4 (protein)
chain: QARSDSLYFNDPIWSNMWYMHCADKNSRCRSEMNVQAAWKRGYTGKNVVVTILDDGIERNHPDLAPNYDSYASYDVNGNDYDPSPRYDASNENKHGTRCAGEVAASANNSYCIVGIAYNAKIGGIRMLDGDVTDVVEAKSLGIRPNYIDIYSASWGPDDDGKTVDGPGRLAKQAFEYGIKKGRQGLGSIFVWASGNGGREGDHCSCDGYTNSIYTISVSSTTENGHKPWYLEECASTLATTYSSGAFYERKIVTTDLRQRCTDGHTGTSVSAPMVAGIIALALEANNQLTWRDVQHLLVKTSRPAHLKASDWKVNGAGHKVSHLYGFGLVDAEALVLEARKWTAVPSQHMCVATADKRPRSIPVVQVLRTTALTNACADHSDQRVVYLEHVVVRISISHPRRGDLQIHLISPSGTKSQLLAKRLLDFSNEGFTNWEFMTVHCWGEKAEGEWTLEVQDIPSQVRNPEKQGKLKEWSLILYGTAEHPYRTFSSHQSRSRMLELSVPEQEPLKAEGPPPQAETPEEEEEYTGVCHPECGDKGCDGPSADQCLNCVHFSLGNSKTNRKCVSECPLGYFGDTAARRCRRCHKGCETCTGRSPTQCLSCRRGFYHHQETNTCVTLCPAGLYADESQRLCLRCHPSCQKCVDEPEKSTVCKEGFSLARGSCIPDCEPGTYFDSELIRCGECHHTCRTCVGPSREECIHCAKSFHFQDWKCVPACGEGFYPEEMPGLPHKVCRRCDENCLSCEGSSRNCSRCKAGFTQLGTSCITNHTCSNADETFCEMVKSNRLCERKLFIQFCCRTCLLAG
B2: Recombinant human PC5/6 (protein)
chain: DYDFSRAQSTYFNDPKWPSMWYMHCSDNTHPCQSDMNIEGAWKRGYTGKNIVVTILDDGIERTHPDLMQNYDALASCDVNGNDLDPMPRYDASNENKHGTRCAGEVAAAANNSHCTVGIAFNAKIGGVRMLDGDVTDMVEAKSVSFNPQHVHIYSASWGPDDDGKTVDGPAPLTRQAFENGVRMGRRGLGSVFVWASGNGGRSKDHCSCDGYTNSIYTISISSTAESGKKPWYLEECSSTLATTYSSGESYDKKIITTDLRQRCTDNHTGTSASAPMAAGIIALALEANPFLTWRDVQHVIVRTSRAGHLNANDWKTNAAGFKVSHLYGFGLMDAEAMVMEAEKWTTVPRQHVCVESTDRQIKTIRPNSAVRSIYKASGCSDNPNRHVNYLEHVVVRITITHPRRGDLAIYLTSPSGTRSQLLANRLFDHSMEGFKNWEFMTIHCWGERAAGDWVLEVYDTPSQLRNFKTPGKLKEWSLVLYGTSVQPYSPTNEFPKVERFRYSRVEDPTDDYGTEDYAGPCDPECSEVGCDGPGPDHCNDCLHYYYKLKNNTRICVSSCPPGHYHADKKRCRKCAPNCESCFGSHGDQCMSCKYGYFLNEETNSCVTHCPDGSYQDTKKNLCRKCSENCKTCTEFHNCTECRDGLSLQGSRCSVSCEDGRYFNGQDCQPCHRFCATCAGAGADGCINCTEGYFMEDGRCVQSCSISYYFDHSSENGYKSCKKCDISCLTCNGPGFKNCTSCPSGYLLDLGMCQMGAICKDATEESWAEGGFCMLVKKNNLCQRKVLQQLCCKTCTFQG
B3: Recombinant human PC4 (protein)
chain: SVVVPTDPWFSKQWYMNSEAQPDLSILQAWSQGLSGQGIVVSVLDDGIEKDHPDLWANYDPLASYDFNDYDPDPQPRYTPSKENRHGTRCAGEVAAMANNGFCGVGVAFNARIGGVRMLDGTITDVIEAQSLSLQPQHIHIYSASWGPEDDGRTVDGPGILTREAFRRGVTKGRGGLGTLFIWASGNGGLHYDNCNCDGYTNSIHTLSVGSTTQQGRVPWYSEACASTLTTTYSSGVATDPQIVTTDLHHGCTDQHTGTSASAPLAAGMIALALEANPFLTWRDMQHLVVRASKPAHLQAEDWRTNGVGRQVSHHYGYGLLDAGLLVDTARTWLPTQPQRKCAVRVQSRPTPILPLIYIRENVSACAGLHNSIRSLEHVQAQLTLSYSRRGDLEISLTSPMGTRSTLVAIRPLDVSTEGYNNWVFMSTHFWDENPQGVWTLGLENKGYYFNTGTLYRYTLLLYGTAEDMTARPTGPQVTSSACVQRDTEGLCQACDGPAYILGQLCLAYCPPRFFNHTRLVTAGPGHTAAPALRVCSSCHASCYTCRGGSPRDCTSCPPSSTLDQQQGSCMGPTTPDSRPRLRAAACPHHRCPAS
B4: Recombinant human PC7 (protein)
chain: SVHFNDPKYPQQWHLNNRRSPGRDINVTGVWERNVTGRGVTVVVVDDGVEHTIQDIAPNYSPEGSYDLNSNDPDPMPHPDVENGNHHGTRCAGEIAAVPNNSFCAVGVAYGSRIAGIRVLDGPLTDSMEAVAFNKHYQINDIYSCSWGPDDDGKTVDGPHQLGKAALQHGVIAGRQGFGSIFVVASGNGGQHNDNCNYDGYANSIYTVTIGAVDEEGRMPFYAEECASMLAVTFSGGDKMLRSIVTTDWDLQKGTGCTEGHTGTSAAAPLAAGMIALMLQVRPCLTWRDVQHIIVFTATRYEDRRAEWVTNEAGFSHSHQHGFGLLNAWRLVNAAKIWTSVPYLASYVSPVLKENKAIPQSPRSLEVLWNVSRMDLEMSGLKTLEHVAVTVSITHPRRGSLELKLFCPSGMMSLIGAPRSMDSDPNGFNDWTFSTVRCWGERARGTYRLVIRDVGDESFQVGILRQWQLTLYGSVWSAVDIRDRQRLLESAMSGKYLHDDFALPCPPGLKIPEEDGYTITPNTLKT

Assays:
[1] = target: recombinant H5 precursor (HA0)
[2] = target: Anthrax Protective Antigen-83 (PA83), P13423
[3] = target: T1, Pseudomonas exotoxin A (PEx), P11439

Anthrax Protective Antigen-83 (PA83), P13423, sequence (P13423 whole entry, looked up): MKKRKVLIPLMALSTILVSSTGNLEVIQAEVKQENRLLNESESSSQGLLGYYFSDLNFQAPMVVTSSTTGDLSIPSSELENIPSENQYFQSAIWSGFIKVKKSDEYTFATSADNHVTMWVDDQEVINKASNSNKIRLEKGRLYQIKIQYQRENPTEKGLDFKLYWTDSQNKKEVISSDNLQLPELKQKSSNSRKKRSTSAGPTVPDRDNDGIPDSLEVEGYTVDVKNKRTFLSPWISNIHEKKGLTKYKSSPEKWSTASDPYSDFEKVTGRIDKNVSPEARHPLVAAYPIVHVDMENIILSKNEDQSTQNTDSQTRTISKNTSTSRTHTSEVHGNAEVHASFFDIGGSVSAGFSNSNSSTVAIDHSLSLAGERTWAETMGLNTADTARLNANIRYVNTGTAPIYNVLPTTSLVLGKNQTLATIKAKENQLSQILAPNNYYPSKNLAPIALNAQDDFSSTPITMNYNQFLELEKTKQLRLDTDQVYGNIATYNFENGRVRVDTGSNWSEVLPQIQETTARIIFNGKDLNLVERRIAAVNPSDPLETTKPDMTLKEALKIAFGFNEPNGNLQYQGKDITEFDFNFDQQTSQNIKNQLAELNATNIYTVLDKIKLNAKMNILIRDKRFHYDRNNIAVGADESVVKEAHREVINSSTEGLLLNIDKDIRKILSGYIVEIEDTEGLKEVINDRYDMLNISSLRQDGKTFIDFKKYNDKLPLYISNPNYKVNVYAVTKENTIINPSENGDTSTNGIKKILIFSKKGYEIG

Row | Protein | in vitro cleavage of biotin-labeled substrate (Western blot) [1] | in vitro cleavage of biotin-labeled substrate (Western blot) [2] | in vitro cleavage at pH 5.5 (Western blot) [3]
1 | B1 | other PCs were less efficient | PACE4 and PC7 were less effective | 
2 | B2 | efficiently cleaved |  | readily processed
3 | B3 | other PCs were less efficient |  | readily processed
4 | B4 | other PCs were less efficient | PACE4 and PC7 were less effective | 
